The record followed here is PMC7544431 (Nature, 2020).

Data set [1] deals with the molecule itself. The experiment in a line: cryo-EM structure.
Data set [2] concerns the molecule itself. Kind of data set: cryo-EM structure. The source holds these as a separate data set.

B1: human MICU2 (subunit of the purified uniplex) (natural protein, UniProt Q8IYU8 23-434, looked up)
chain: AVSRQAVRSPGPLAAAVAGAALAGAGAAWHHSRVSVAARDGSFTVSAQKNVEHGIIYIGKPSLRKQRFMQFSSLEHEGEYYMTPRDFLFSVMFEQMERKTSVKKLTKKDIEDTLSGIQTAGCGSTFFRDLGDKGLISYTEYLFLLTILTKPHSGFHVAFKMLDTDGNEMIEKREFFKLQKIISKQDDLMTVKTNETGYQEAIVKEPEINTTLQMRFFGKRGQRKLHYKEFRRFMENLQTEIQEMEFLQFSKGLSFMRKEDFAEWLLFFTNTENKDIYWKNVREKLSAGESISLDEFKSFCHFTTHLEDFAIAMQMFSLAHRPVRLAEFKRAVKVATGQELSNNILDTVFKIFDLDGDECLSHEEFLGVLKNRMHRGLWVPQHQSIQEYWKCVKKESIKGVKEVWKQAGKGLF
modifications: disulfide to MICU1 (C413 of MICU2 and C463 of MICU1 in range)
As to B1, in the data set “cryo-EM structure [1]”, the binding result was “binds”.

B2: human MCU (subunit of the purified uniplex) (natural protein, UniProt Q8NE86 51-351, looked up)
chain: VHQRIASWQNLGAVYCSTVVPSDDVTVVYQNGLPVISVRLPSRRERCQFTLKPISDSVGVFLRQLQEEDRGIDRVAIYSPDGVRVAASTGIDLLLLDDFKLVINDLTYHVRPPKRDLLSHENAATLNDVKTLVQQLYTTLCIEQHQLNKERELIERLEDLKEQLAPLEKVRIEISRKAEKRTTLVLWGGLAYMATQFGILARLTWWEYSWDIMEPVTYFITYGSAMAMYAYFVMTRQEYVYPEARDRQYLLFFHKGAKKSRFDLEKYNQLKDAIAQAEMDLKRLRDPLQVHLPLRQIGEKD
One may read the stoichiometry N as a count of units in the complex or per binding partner. For the protein B2, the “stoichiometry N” value in “cryo-EM structure [2]” was determined as 4.
